Data reported in patent US20090048161A1 (VALORISATION HSJ SOCIETE EN COMMANDITE, published 2009).
Where no end group is shown, it is not given here. [ ]: non-standard residue; d: D form. dOrn = NCCC[C@@H](N)C(=O)O

Key:
Assay in all cases: cell-based or functional assay
[1] = target: VEGFR-2 (Flk-1) (human, UniProt P35968 20-1356)
[2] = target: T1, human Insulin-like growth factor 1 receptor (IGF-1R) (human, UniProt P08069 31-1367)
[3] = target: T1, human Insulin-like growth factor 1 …; remark: listed apart in the source
[4] = target: T2, human Interleukin-1 receptor (IL-1R-alpha) (human, UniProt P14778 18-569)
T2 sequence: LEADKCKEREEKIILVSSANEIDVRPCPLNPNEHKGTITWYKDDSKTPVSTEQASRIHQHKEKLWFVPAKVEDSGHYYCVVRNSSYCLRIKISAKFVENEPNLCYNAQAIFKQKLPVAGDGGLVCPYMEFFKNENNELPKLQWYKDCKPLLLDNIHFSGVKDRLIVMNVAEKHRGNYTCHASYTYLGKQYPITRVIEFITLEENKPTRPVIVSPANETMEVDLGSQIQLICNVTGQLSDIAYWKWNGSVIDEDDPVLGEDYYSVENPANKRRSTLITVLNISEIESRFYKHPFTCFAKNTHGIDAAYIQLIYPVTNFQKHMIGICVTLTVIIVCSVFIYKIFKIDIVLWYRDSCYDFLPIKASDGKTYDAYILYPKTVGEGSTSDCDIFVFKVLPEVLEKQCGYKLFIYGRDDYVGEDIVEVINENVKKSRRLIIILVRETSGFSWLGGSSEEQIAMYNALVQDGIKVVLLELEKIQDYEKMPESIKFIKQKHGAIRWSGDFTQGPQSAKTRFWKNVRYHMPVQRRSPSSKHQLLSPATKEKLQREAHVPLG

[5] = target: T3, IL-1R of pig (piglet pial vessels; porcine endothelial cells) (porcine (piglet), UniProt A0A5G2QSI4 18-572)
T3 sequence: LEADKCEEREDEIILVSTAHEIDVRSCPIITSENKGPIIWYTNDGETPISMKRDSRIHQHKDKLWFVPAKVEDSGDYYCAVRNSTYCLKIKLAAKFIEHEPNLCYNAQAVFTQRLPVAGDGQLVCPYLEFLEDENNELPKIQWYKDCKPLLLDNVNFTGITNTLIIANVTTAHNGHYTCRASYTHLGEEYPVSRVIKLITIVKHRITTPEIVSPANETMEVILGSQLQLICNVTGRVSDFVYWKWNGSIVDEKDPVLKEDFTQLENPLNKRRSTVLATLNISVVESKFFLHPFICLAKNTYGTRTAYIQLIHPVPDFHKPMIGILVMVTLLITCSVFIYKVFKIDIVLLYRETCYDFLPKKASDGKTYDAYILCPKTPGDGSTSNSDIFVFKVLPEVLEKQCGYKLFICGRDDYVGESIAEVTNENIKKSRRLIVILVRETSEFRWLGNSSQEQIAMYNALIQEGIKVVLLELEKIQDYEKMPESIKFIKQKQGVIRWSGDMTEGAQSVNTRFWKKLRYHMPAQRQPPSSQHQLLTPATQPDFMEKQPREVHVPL

[6] = target: T2, human Interleukin-1 receptor …; remark: listed apart in the source
[7] = target: IGF-1 receptor of rat aorta (rat, UniProt P24062 31-1370)
Chain of IGF-1 receptor of rat aorta (P24062 31-1370): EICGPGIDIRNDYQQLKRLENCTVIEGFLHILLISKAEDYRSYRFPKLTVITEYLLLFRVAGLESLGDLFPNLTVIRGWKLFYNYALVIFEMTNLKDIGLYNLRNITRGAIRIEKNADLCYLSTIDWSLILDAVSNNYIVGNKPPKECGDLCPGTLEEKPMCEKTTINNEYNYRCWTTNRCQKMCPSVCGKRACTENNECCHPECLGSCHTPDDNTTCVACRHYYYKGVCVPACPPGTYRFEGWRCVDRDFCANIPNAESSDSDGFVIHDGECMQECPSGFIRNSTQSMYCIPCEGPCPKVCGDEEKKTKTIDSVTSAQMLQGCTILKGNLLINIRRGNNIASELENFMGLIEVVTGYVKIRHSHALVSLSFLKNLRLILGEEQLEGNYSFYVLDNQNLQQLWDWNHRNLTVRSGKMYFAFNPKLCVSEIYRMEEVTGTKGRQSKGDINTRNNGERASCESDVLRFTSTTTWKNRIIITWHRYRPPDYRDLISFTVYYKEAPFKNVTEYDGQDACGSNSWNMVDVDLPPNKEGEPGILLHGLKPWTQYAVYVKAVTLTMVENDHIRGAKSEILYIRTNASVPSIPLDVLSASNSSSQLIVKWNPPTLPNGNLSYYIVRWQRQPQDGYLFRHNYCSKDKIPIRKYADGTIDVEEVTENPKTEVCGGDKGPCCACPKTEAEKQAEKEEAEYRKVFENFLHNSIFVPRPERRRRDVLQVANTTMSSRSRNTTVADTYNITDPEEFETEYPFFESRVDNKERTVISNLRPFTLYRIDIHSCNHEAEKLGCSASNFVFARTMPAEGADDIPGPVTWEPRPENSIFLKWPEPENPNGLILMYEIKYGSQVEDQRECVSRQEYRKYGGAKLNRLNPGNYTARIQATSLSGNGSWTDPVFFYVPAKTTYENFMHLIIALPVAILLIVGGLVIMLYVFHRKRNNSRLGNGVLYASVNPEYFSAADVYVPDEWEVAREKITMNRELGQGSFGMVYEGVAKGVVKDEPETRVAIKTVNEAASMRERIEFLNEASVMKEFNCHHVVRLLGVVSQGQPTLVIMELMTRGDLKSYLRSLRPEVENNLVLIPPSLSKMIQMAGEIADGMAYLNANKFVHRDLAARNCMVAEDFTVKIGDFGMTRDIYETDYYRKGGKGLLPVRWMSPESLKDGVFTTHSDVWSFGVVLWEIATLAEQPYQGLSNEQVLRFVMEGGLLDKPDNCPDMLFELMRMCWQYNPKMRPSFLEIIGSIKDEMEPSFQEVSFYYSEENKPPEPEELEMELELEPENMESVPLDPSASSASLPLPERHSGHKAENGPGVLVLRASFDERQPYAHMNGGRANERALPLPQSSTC

[8] = target: T1, human Insulin-like growth factor 1 …; remark: listed apart in the source
[9] = target: T1, human Insulin-like growth factor 1 …; remark: listed apart in the source
[10] = target: T3, IL-1R of pig (piglet pial vessels; …); remark: listed apart in the source
[11] = target: T2, human Interleukin-1 receptor …; remark: listed apart in the source
[12] = target: IL-1R (cells or tissue whose species or assay the filing does not state at that place)

T1 sequence (P08069 31-1367 limits assumed): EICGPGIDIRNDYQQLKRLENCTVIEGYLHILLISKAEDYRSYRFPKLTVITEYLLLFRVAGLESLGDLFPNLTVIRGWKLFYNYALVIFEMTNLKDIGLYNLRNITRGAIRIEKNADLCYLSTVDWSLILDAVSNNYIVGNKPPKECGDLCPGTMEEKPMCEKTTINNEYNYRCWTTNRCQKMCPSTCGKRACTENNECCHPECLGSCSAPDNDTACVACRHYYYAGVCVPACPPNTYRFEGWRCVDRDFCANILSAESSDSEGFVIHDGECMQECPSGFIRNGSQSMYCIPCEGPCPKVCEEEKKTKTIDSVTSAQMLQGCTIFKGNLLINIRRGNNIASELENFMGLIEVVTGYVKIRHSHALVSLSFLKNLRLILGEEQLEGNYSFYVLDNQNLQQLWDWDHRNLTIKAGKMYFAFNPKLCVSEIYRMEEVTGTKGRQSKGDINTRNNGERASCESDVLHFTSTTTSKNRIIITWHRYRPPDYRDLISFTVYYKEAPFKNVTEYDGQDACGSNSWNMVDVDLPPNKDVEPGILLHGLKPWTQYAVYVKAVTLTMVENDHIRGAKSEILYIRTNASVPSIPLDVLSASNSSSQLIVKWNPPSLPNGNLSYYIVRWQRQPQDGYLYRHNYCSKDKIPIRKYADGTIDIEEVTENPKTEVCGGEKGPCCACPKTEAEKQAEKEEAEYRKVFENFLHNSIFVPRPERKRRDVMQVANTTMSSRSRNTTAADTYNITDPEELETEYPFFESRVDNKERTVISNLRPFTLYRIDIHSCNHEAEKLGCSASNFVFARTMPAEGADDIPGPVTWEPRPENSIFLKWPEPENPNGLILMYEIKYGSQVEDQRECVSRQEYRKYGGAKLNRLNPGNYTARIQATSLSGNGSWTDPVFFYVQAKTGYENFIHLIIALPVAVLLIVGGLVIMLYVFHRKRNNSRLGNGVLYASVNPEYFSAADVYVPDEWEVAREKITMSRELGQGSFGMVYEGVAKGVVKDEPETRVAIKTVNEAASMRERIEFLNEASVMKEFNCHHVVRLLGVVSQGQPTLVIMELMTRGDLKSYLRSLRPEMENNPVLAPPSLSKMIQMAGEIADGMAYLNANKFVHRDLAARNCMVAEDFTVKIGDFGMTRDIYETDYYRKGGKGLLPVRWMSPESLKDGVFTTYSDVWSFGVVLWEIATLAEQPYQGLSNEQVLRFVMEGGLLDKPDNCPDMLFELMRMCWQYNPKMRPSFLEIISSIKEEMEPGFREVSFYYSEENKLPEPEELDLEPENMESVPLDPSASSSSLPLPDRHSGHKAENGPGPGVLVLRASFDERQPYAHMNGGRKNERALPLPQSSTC
Chain of VEGFR-2 (Flk-1) (P35968 20-1356 limits assumed): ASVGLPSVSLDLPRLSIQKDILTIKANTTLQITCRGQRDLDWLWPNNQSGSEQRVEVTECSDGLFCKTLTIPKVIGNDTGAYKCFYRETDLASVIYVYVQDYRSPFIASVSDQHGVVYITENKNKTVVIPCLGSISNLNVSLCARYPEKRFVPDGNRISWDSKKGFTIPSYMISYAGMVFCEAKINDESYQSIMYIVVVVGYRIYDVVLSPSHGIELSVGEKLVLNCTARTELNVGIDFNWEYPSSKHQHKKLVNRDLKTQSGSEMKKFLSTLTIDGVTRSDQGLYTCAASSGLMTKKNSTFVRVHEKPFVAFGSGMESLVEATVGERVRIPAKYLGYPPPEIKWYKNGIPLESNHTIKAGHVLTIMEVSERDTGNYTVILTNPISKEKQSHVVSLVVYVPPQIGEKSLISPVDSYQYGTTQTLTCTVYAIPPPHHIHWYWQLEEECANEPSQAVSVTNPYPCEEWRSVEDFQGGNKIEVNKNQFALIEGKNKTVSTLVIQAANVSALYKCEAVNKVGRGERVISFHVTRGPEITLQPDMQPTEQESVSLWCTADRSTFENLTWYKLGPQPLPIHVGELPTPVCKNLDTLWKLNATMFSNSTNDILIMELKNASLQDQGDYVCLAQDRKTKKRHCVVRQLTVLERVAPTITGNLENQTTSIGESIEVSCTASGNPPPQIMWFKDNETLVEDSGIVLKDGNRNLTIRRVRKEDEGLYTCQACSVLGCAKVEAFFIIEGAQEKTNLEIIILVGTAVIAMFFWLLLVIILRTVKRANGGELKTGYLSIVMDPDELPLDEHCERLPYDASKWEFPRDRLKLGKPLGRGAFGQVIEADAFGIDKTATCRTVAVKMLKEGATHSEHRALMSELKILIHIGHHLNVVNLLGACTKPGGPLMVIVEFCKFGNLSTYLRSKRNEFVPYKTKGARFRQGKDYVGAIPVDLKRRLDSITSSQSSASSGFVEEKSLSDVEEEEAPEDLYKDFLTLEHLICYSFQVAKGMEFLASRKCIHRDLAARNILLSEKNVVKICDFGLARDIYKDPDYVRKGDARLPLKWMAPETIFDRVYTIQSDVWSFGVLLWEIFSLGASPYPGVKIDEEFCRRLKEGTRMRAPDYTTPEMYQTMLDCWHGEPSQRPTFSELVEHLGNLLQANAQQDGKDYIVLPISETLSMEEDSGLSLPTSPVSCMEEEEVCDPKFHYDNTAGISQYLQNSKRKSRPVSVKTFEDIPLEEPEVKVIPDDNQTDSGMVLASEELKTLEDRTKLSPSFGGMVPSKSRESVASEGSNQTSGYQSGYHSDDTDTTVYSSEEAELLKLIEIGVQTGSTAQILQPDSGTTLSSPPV

[dA][dQ][dE][dK][dT][dN][dL][dE][dI][dI][dI][dL][dV]G (not fully specified (residue 14)) [VEGFR peptide 2.1]
EC50, VEGF (2 ng/ml)-induced proliferation, 3H-thymidine, PAEC transfected with Flk-1 [1]: 9000 nM

[dE][dS][dD][dV][dL][dH][dF][dT][dS][dT] [APG-202]
EC50, IGF-1 induced proliferation, 3H-thymidine, A549 carcinoma cells [2]: 10 nM
EC50, IGF-1 (50 ng/ml)-induced proliferation, MCF-7 [3]: 300 nM
Emax, IGF-1 (50 ng/ml)-induced proliferation, MCF-7 [3]: 20%

[dR][dY][dT][dP][dE][dL] [API-101.113]
Emax (%), IL-1β-induced TF-1 proliferation [4]: 70%
Emax (%), IL-1β-induced PGE2 synthesis in endothelial cells (porcine) [5]: 80%
IC50, IL-1β-induced PGE2 synthesis in endothelial cells (porcine) [5]: 0.0074 nM
Emax (%), IL-1β-induced proliferation in TF-1 cells (human) [6]: 100%

[dK][dY][dT][dP][dE][dL][dA] [API-101.114]
Emax (%), IL-1β-induced PGE2 synthesis in endothelial cells (porcine) [5]: 50%
IC50, IL-1β-induced PGE2 synthesis in endothelial cells (porcine) [5]: 0.002 nM

[dOrn][dY][dT][dP][dE][dL][dA] [API-101.115]
Emax (%), IL-1β-induced proliferation in TF-1 cells (human) [6]: 100%
IC50, IL-1β-induced proliferation in TF-1 cells (human) [6]: ~0.001 nM

[dR][dW][dT][dP][dE][dL][dA] [API-101.116]
Emax (%), IL-1β-induced PGE2 synthesis in endothelial cells (porcine) [5]: 45%
IC50, IL-1β-induced PGE2 synthesis in endothelial cells (porcine) [5]: 0.013 nM
Emax (%), IL-1β-induced proliferation in TF-1 cells (human) [6]: 75%
IC50, IL-1β-induced proliferation in TF-1 cells (human) [6]: 0.5 nM

RTNASVPSI [APG-203]
EC50, inhibition of ex vivo IGF-1-induced vasorelaxation of rat aorta [7]: 96 nM
Emax, inhibition of ex vivo IGF-1-induced vasorelaxation of rat aorta [7]: 50%
EC50, IGF-1 (50 ng/ml)-induced proliferation, HepG2 [3]: < 0.1 nM
EC50, IGF-1 (50 ng/ml)-induced proliferation, MCF-7 [3]: 8 nM
EC50, IGF-1 (50 ng/ml)-induced proliferation, MDA-MB-231 [3]: 0.1 nM
Emax, IGF-1 (50 ng/ml)-induced proliferation, MCF-7 [3]: 45%
Emax, IGF-1 (50 ng/ml)-induced proliferation, MDA-MB-231 [3]: 100%

[dR][dY][dT][dP][dD][dL][dA] [API-101.117]
Emax (%), IL-1β-induced PGE2 synthesis in endothelial cells (porcine) [5]: 100%
IC50, IL-1β-induced PGE2 synthesis in endothelial cells (porcine) [5]: 0.01 nM

[dOrn][dY][dT][dP][dE][dL] [API-101.126]
Emax (%), IL-1β-induced TF-1 proliferation [4]: 0%

[dR][dF][dV][dP][dE][dL][dA] [API-101.127]
Emax (%), IL-1β-induced TF-1 proliferation [4]: < 30%

[dR][dW][dT][dP][dE][dL] [API-101.128]
Emax (%), IL-1β-induced TF-1 proliferation [4]: 100%
IC50, IL-1β-induced TF-1 proliferation [4]: 3 nM

[dR][dY][dT][dP][dE][dV] [API-101.129]
Emax (%), IL-1β-induced TF-1 proliferation [4]: 50%
IC50, IL-1β-induced TF-1 proliferation [4]: 400 nM

[dK][dY][dT][dP][dE][dL] [API-101.133]
Emax (%), IL-1β-induced TF-1 proliferation [4]: < 10%

R[dY][dT][dP][dE][dL] [API-101.135]
Emax (%), IL-1β-induced TF-1 proliferation [4]: 63%

ENFLHLLLA [APG-205]
EC50, inhibition of ex vivo IGF-1-induced vasorelaxation of rat aorta [7]: 70 nM
Emax, inhibition of ex vivo IGF-1-induced vasorelaxation of rat aorta [7]: 25%
EC50, IGF-1 (50 ng/ml)-induced proliferation, MCF-7 [3]: 0.1 nM
EC50, IGF-1 (50 ng/ml)-induced proliferation, MDA-MB-231 [3]: 100 nM
Emax, IGF-1 (50 ng/ml)-induced proliferation, MCF-7 [3]: 60%
Emax, IGF-1 (50 ng/ml)-induced proliferation, MDA-MB-231 [3]: 100%

KERTVISNLR [APG-206]
EC50, inhibition of ex vivo IGF-1-induced vasorelaxation of rat aorta [7]: 689 nM
Emax, inhibition of ex vivo IGF-1-induced vasorelaxation of rat aorta [7]: 75%
EC50, IGF-1 (50 ng/ml)-induced proliferation, HepG2 [3]: < 0.1 nM
EC50, IGF-1 (50 ng/ml)-induced proliferation, MCF-7 [3]: 2 nM
Emax, IGF-1 (50 ng/ml)-induced proliferation, MCF-7 [3]: 60%

[dE][dA][dT][dV]G[dE][dR][dV][dR][dL] (not fully specified (residue 5)) [VEGFR peptide 2.2]
EC50, VEGF (2 ng/ml)-induced proliferation, 3H-thymidine, PAEC transfected with Flk-1 [1]: 9000 nM

[dS][dL][dF][dV][dP][dR][dP][dE][dR][dK] [APG-201]
EC50, IGF-1 induced proliferation, 3H-thymidine, A549 carcinoma cells [2]: 1000 nM
EC50, IGF-1 (50 ng/ml)-induced proliferation, MCF-7 [3]: 35 nM
EC50, IGF-1 (50 ng/ml)-induced proliferation, MDA-MB-231 [3]: 0.1 nM
Emax, IGF-1 (50 ng/ml)-induced proliferation, MCF-7 [3]: 20%
Emax, IGF-1 (50 ng/ml)-induced proliferation, MDA-MB-231 [3]: 100%

KERTVLS [APG-206.5]
Emax, IGF-1-induced proliferation, NIH3T3-IGF-1R cells [8]: 75%
IC50, IGF-1-induced proliferation, NIH3T3-IGF-1R cells [8]: 0.5 nM
Emax, proliferation, MCF-7 (breast cancer) cells [9]: 100%
IC50, proliferation, MCF-7 (breast cancer) cells [9]: 9 nM

ERTVLSNL [APG-206.7]
Emax, IGF-1-induced proliferation, NIH3T3-IGF-1R cells [8]: 100%
IC50, IGF-1-induced proliferation, NIH3T3-IGF-1R cells [8]: 20 nM
Emax, proliferation, MCF-7 (breast cancer) cells [9]: 90%
IC50, proliferation, MCF-7 (breast cancer) cells [9]: 0.01 nM

TVLSNL [APG-206.9]
Emax, IGF-1-induced proliferation, NIH3T3-IGF-1R cells [8]: 90%
IC50, IGF-1-induced proliferation, NIH3T3-IGF-1R cells [8]: 20 nM

RTVLSNL [APG-206.8]
Emax, proliferation, MCF-7 (breast cancer) cells [9]: 100%
IC50, proliferation, MCF-7 (breast cancer) cells [9]: 0.6 nM

[dA][dP][dR][dY][dT][dV][dE][dL][dA] [API-101]
IC50, IL-1-induced PGE2 synthesis, endothelial cells [10]: 220 nM
IC50, prevention of IL-1β (75 ng/ml)-induced vasodilation, piglet pial vessels [10]: 182 nM
EC50, IL-1 induced proliferation, 3H-thymidine, A549 carcinoma cells [11]: 1000 nM
IC50, IL-1-induced PGE2 synthesis, WI-38 cells [11]: 790 nM
percent of IL-1β-induced WI-38 (human lung fibroblasts) proliferation abolished, 3H-thymidine [11]: 65%

MKLPVHKLY [API-103]
EC50, IL-1 induced proliferation, 3H-thymidine, A549 carcinoma cells [11]: 1000 nM

VGSPKNAVPPV [API-106]
EC50, IL-1 induced proliferation, 3H-thymidine, A549 carcinoma cells [11]: 10000 nM

[dR][dY][dT][dV][dE][dL][dA] (also: 125I-labelled form used as tracer, site not given here) [API-101.10]
IC50, IL-1-induced PGE2 synthesis, endothelial cells [10]: 1.2 nM
IC50, prevention of IL-1β (75 ng/ml)-induced vasodilation, piglet pial vessels [10]: 10.8 nM
IC50, IL-1-induced PGE2 synthesis, WI-38 cells [11]: 0.2 nM
percent of IL-1β-induced WI-38 (human lung fibroblasts) proliferation abolished, 3H-thymidine [11]: 100%

[dY][dT][dV][dE][dL][dA] [API-101.11]
percent of IL-1β-induced WI-38 (human lung fibroblasts) proliferation abolished, 3H-thymidine [11]: 100%

[dR][dY][dT][dV][dQ][dL][dA] [API-101.103]
IC50, PGE2 measurement, human WI-38 cells [11]: 50 nM

[dR][dY][dT][dP][dE][dL][dA] [API-101.107]
IC50 (assay not given) [12]: 0.0012 nM
IC50, PGE2 measurement, human WI-38 cells [11]: 100 nM
